Patent US20160136299A1 (Sanofi, published 2016)

Biological target: T1, Recombinant human FcγRI (human, UniProt P12314 16-292, limits assumed)
T1 construct: not shown: His tag (captured on anti-tetra-His antibody)
Assay: Biacore SPR; FcγRI captured on anti-tetra-His, antibody 100 nM

T1 sequence (P12314 16-292 limits assumed): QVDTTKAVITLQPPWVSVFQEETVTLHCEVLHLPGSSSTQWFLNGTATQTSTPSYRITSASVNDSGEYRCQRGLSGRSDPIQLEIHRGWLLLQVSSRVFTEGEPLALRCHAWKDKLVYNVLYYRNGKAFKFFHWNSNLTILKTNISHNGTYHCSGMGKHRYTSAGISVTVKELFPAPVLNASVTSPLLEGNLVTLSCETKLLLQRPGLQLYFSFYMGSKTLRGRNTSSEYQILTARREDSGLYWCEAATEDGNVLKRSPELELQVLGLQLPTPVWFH

Row | binding result | Binder
1 | binds | Anti-αβTCR clone H66 S298N/Y300S antibody (antibody, human IgG1, kappa, Full-length human IgG1; also called SY; S298N/Y300S H66) heavy: not shown light: EIVLTQSPATLSLSPGERATLSCSATSSVSYMHWYQQKPGQAPRRLIYDTSKLASGVPARFSGSGSGTSYTLTISSLEPEDFAVYYCQQWSSNPLTFGGGTKVEIKRTVAAPSVFIFPPSDEQLKSGTASVVCLLNNFYPREAKVQWKVDNALQSGNSQESVTEQDSKDSTYSLSSTLTLSKADYEKHKVYACEVTHQGLSSPVTKSFNRGEC
2 | binds | Anti-αβTCR clone H66 N297Q/S298N/Y300S antibody (antibody, human IgG1, kappa, Full-length human IgG1; also called NSY) heavy: EVQLLQSGGGLVQPGGSLRLSCAASGYKFTSYVMHWVRQAPGKGLEWVGYINPYNDVTKYNEKFKGRFTLSRDNSKNTLYLQMNSLRAEDTAVYYCARGSYYDYDGFVYWGQGTLVTVSSASTKGPSVFPLAPSSKSTSGGTAALGCLVKDYFPEPVTVSWNSGALTSGVHTFPAVLQSSGLYSLSSVVTVPSSSLGTQTYICNVNHKPSNTKVDKKVEPKSCDKTHTCPPCPAPELLGGPSVFLFPPKPKDTLMISRTPEVTCVVVDVSHEDPEVKFNWYVDGVEVHNAKTKPREEQYQNTSRVVSVLTVLHQDWLNGKEYKCKVSNKALPAPIEKTISKAKGQPREPQVYTLPPSRDELTKNQVSLTCLVKGFYPSDIAVEWESNGQPENNYKTTPPVLDSDGSFFLYSKLTVDKSRWQQGNVFSCSVMHEALHNHYTQKSLSLSPGK light: EIVLTQSPATLSLSPGERATLSCSATSSVSYMHWYQQKPGQAPRRLIYDTSKLASGVPARFSGSGSGTSYTLTISSLEPEDFAVYYCQQWSSNPLTFGGGTKVEIKRTVAAPSVFIFPPSDEQLKSGTASVVCLLNNFYPREAKVQWKVDNALQSGNSQESVTEQDSKDSTYSLSSTLTLSKADYEKHKVYACEVTHQGLSSPVTKSFNRGEC
